Results as given in the supplement of paper PMC10724198.
± gives the standard deviation of the averaged measurements.

System: Saccharomyces cerevisiae
Experiment: protein stability index of tFT-peptide fusion (C-terminal peptide) (PSI (0-1 scale)); higher = more stable (slower turnover)
Conditions: temperature: 30 C
Procedure: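 MPS profiling in S. cerevisiae of the yeast C-terminome library: the last 12 aa of each annotated ORF are fused to the C-terminus of a sfGFP-mCherry timer, after a GGGS linker. Cells are FACS-sorted into 8 mCherry/sfGFP bins and deep-sequenced. PSI runs from 0 (unstable) to 1 (stable); wild type and das1Δ backgrounds, two technical replicates each.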

[1] = genetic background: das1 deletion

Row | Sequence | protein stability index [1] | protein stability index (genetic background: wild type)
1 | YHLFYMKLQKKI [SPE2 C-terminal 12 aa] | 0.6977 ± 0.0069 | 0.187 ± 0.013
2 | EIRKIMMEEQPR [CHM7 C-terminal 12 aa] | 0.6863 ± 0.0051 | 0.66 ± 0.0089
3 | QSARRQRGSIAM [SDS24 C-terminal 12 aa] | 0.683 ± 0.02 | 0.6657 ± 0.0037
4 | LASVRLSWYSII [YGR204C-A C-terminal 12 aa] | 0.71 ± 0.021 | 0.277 ± 0.014
5 | NKPKGPLRKRRT [TWF1 C-terminal 12 aa] | 0.7 ± 0.017 | 0.672 ± 0.011
6 | FSIVALEVWRVG [OXR1 C-terminal 12 aa] | 0.552 ± 0.013 | 0.567 ± 0.022
7 | IQESRFNFYLIT [RKM5 C-terminal 12 aa] | 0.683 ± 0.023 | 0.6241 ± 0.0035
8 | DNDIYNTISEVR [RAD9 C-terminal 12 aa] | 0.697 ± 0.022 | 0.727 ± 0.024
9 | MKTRLERERGLV [PTC4 C-terminal 12 aa] | 0.694 ± 0.027 | 0.638 ± 0.019
10 | KQPDLQERVTQE [MHF1 C-terminal 12 aa] | 0.666 ± 0.045 | 0.685 ± 0.14
11 | FLLVLFFICIIL [YOL014W C-terminal 12 aa] | 0.366 ± 0.013 | 0.3063 ± 0.0029
12 | ILRILANSNDDN [BXI1 C-terminal 12 aa] | 0.699 ± 0.036 | 0.6562 ± 0.0062
13 | CNYYYHPRITFA [RMT2 C-terminal 12 aa] | 0.6909 ± 0.0037 | 0.708 ± 0.039
14 | ACILMAISQFNS [KSH1 C-terminal 12 aa] | 0.619 ± 0.013 | 0.6333 ± 0.0061
15 | SKSFPTAGEMRA [PET8 C-terminal 12 aa] | 0.711 ± 0.035 | 0.7283 ± 0.0038
16 | GETSSSSAVAEV [AQY1 C-terminal 12 aa] | 0.6874 ± 0.0045 | 0.659 ± 0.03
17 | EKLPSKFTFKRE [ARN1 C-terminal 12 aa] | 0.696 ± 0.012 | 0.6817 ± 0.0011
18 | LKFEPTQEIVES [ITR2 C-terminal 12 aa] | 0.7054 ± 0.002 | 0.677 ± 0.032
19 | MKKPRKSKKAAN [KRE33 C-terminal 12 aa] | 0.716 ± 0.018 | 0.714 ± 0.039
20 | PFGKKKTGLFSL [PRM10 C-terminal 12 aa] | 0.723 ± 0.036 | 0.717 ± 0.03
21 | SDVAKQLAALGY [RPL16A C-terminal 12 aa] | 0.698 ± 0.024 | 0.677 ± 0.012

Row | Sequence | protein stability index [1] | protein stability index (genetic background: wild type)
22 | LKLEQKIGELSK [CRN1 C-terminal 12 aa] | 0.679 ± 0.0071 | 0.718 ± 0.097
23 | IRDEGLNNLDTA [YPL257W C-terminal 12 aa] | 0.6944 ± 0.006 | 0.704 ± 0.019
24 | QSLKISKKRRRK [ZIP1 C-terminal 12 aa] | 0.734 ± 0.033 | 0.748 ± 0.086
25 | CNVCLFPDMYAR [CTF19 C-terminal 12 aa] | 0.71 ± 0.01 | 0.727 ± 0.039
26 | ARGCCEVTSKRF [YGL188C C-terminal 12 aa] | 0.683 ± 0.011 | 0.676 ± 0.0099
27 | IKARNMKIDRTQ [COG4 C-terminal 12 aa] | 0.681 ± 0.018 | 0.695 ± 0.041
28 | HVCVDVDVIVST [TRM12 C-terminal 12 aa] | 0.6505 ± 0.0056 | 0.6574 ± 0.001
29 | LVFALLTCFEDG [YDR209C C-terminal 12 aa] | 0.481 ± 0.0089 | 0.505 ± 0.014
30 | HDDKPWYKAMLE [GAL2 C-terminal 12 aa] | 0.7493 ± 0.0048 | 0.733 ± 0.053
31 | DEDVDFLKVQVF [HAP4 C-terminal 12 aa] | 0.709 ± 0.041 | 0.747 ± 0.064
32 | LILQRLKTSLKI [GFD1 C-terminal 12 aa] | 0.617 ± 0.024 | 0.668 ± 0.03
33 | LIWLTIIYQALT [IRC18 C-terminal 12 aa] | 0.249 ± 0.015 | 0.269 ± 0.0048
34 | KLLIRFILLVNS [YPR130C C-terminal 12 aa] | 0.172 ± 0.016 | 0.111 ± 0.0048
35 | LKQIEMISGFSL [ADF1 C-terminal 12 aa] | 0.707 ± 0.012 | 0.683 ± 0.053
36 | KKLRQPKEGETF [MMS2 C-terminal 12 aa] | 0.7046 ± 0.00082 | 0.6737 ± 0.00082
37 | AYRTYDISLTEN [DRN1 C-terminal 12 aa] | 0.694 ± 0.035 | 0.656 ± 0.012
38 | MNGIPREAFVQF [MEX67 C-terminal 12 aa] | 0.68 ± 0.0078 | 0.701 ± 0.022
39 | PLITPSGFRSSL [YNR025C C-terminal 12 aa] | 0.707 ± 0.0084 | 0.715 ± 0.025
40 | KIGKGKLYFAIV [YDR220C C-terminal 12 aa] | 0.666 ± 0.011 | 0.491 ± 0.015
41 | QYQHQHQQDPRT [NAF1 C-terminal 12 aa] | 0.701 ± 0.014 | 0.728 ± 0.049
